What all share (experiment): Ki table, method not stated
In one experiment the target is T1, MCL-1 (UniProt Q07820 172-327, limits assumed).
T1 construct: also called Myeloid cell leukemia 1

A further experiment deals with BCL-XL (UniProt Q07817 1-209).
For a further experiment, the target named is BCL-2 (UniProt P10415 1-217, limits assumed).

Starred links: 1 amine or outer side, 2 acyl side, 3 side chain; linkers in the order of their positions; H or OH if unused. Positions of bridges follow the written chain, without caps; N, C: chain ends. Non-standard residues stand in square brackets, D forms with d. hhL = hhLeu, CC(C)CCC[C@H](N[*:1])C(=O)[*:2]; Phe(4-F) = N[C@@H](Cc1ccc(F)cc1)C(=O)O; tBuAla = CC(C)(C)C[C@H](N)C(=O)O; R8 = C=CCCCCCC[C@@](C)(N)C(=O)O; Cha = N[C@@H](CC1CCCCC1)C(=O)O; αMeL = CC(C)C[C@](C)(N)C(=O)O; Chg = N[C@H](C(=O)O)C1CCCCC1; hLeu = CC(C)CC[C@H](N)C(=O)O; S5 = C=CCCC[C@](C)(N)C(=O)O

BCL-XL, sequence (Q07817 1-209): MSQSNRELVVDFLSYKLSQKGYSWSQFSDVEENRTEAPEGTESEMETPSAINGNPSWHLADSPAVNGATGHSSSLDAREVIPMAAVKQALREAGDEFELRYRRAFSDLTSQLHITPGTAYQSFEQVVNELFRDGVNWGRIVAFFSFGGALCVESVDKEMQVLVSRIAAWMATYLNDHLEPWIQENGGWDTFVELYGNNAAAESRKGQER
BCL-2, sequence (P10415 1-217 limits assumed): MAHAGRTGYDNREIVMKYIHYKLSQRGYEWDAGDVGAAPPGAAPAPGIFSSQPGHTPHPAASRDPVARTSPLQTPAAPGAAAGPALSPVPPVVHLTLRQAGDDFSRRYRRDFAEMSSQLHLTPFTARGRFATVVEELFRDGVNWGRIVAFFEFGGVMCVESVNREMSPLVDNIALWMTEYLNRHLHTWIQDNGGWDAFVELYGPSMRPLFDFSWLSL
T1 sequence (Q07820 172-327 limits assumed): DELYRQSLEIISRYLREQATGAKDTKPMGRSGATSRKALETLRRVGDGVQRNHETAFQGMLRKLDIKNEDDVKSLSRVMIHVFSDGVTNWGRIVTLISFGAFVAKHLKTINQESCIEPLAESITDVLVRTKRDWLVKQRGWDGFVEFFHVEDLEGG

B1: SEQ ID NO: 1699 (peptide)
peptide: Ac-IWIAQALR[R8][hLeu]GDAFN[S5]YYA-NH2
modifications: staple 9-16
SMILES: CC[C@H](C)[C@H](NC(C)=O)C(=O)N[C@@H](Cc1c[nH]c2ccccc12)C(=O)N[C@H](C(=O)N[C@@H](C)C(=O)N[C@@H](CCC(N)=O)C(=O)N[C@@H](C)C(=O)N[C@@H](CC(C)C)C(=O)N[C@@H](CCCNC(=N)N)C(=O)N[C@]1(C)CCCCCCC=CCCC[C@@](C)(C(=O)N[C@@H](Cc2ccc(O)cc2)C(=O)N[C@@H](Cc2ccc(O)cc2)C(=O)N[C@@H](C)C(N)=O)NC(=O)[C@H](CC(N)=O)NC(=O)[C@H](Cc2ccccc2)NC(=O)[C@H](C)NC(=O)[C@H](CC(=O)O)NC(=O)CNC(=O)[C@H](CCC(C)C)NC1=O)[C@@H](C)CC
One may read the Ki as the dissociation constant of the complex between target and ligand, obtained from inhibition or displacement. Higher therefore signals weaker binding. Take B1: the values for the Ki with MCL-1, in the experiment with BCL-XL and in the experiment with BCL-2 were 0.013 µM, 0.006 µM and 0.0127 µM, respectively.

B2: SEQ ID NO: 1712 (peptide)
peptide: Ac-IW[hLeu]AQALR[R8]IGDAFN[S5]YYA-NH2
modifications: staple 9-16
SMILES: CC[C@H](C)[C@H](NC(C)=O)C(=O)N[C@@H](Cc1c[nH]c2ccccc12)C(=O)N[C@@H](CCC(C)C)C(=O)N[C@@H](C)C(=O)N[C@@H](CCC(N)=O)C(=O)N[C@@H](C)C(=O)N[C@@H](CC(C)C)C(=O)N[C@@H](CCCNC(=N)N)C(=O)N[C@]1(C)CCCCCCC=CCCC[C@@](C)(C(=O)N[C@@H](Cc2ccc(O)cc2)C(=O)N[C@@H](Cc2ccc(O)cc2)C(=O)N[C@@H](C)C(N)=O)NC(=O)[C@H](CC(N)=O)NC(=O)[C@H](Cc2ccccc2)NC(=O)[C@H](C)NC(=O)[C@H](CC(=O)O)NC(=O)CNC(=O)[C@H]([C@@H](C)CC)NC1=O
notes: also called Ac-IWhLAQALR$r8IGDAFN$YYA-NH2
With B2, the values for the Ki with MCL-1, with BCL-XL and in the experiment with BCL-2 were 0.0037 µM, 0.017 µM and 0.0365 µM, respectively.

B3: SEQ ID NO: 1700 (peptide)
peptide: Ac-IWIAQALR[R8][Cha]GDAFN[S5]YYA-NH2
modifications: staple 9-16
SMILES: CC[C@H](C)[C@H](NC(C)=O)C(=O)N[C@@H](Cc1c[nH]c2ccccc12)C(=O)N[C@H](C(=O)N[C@@H](C)C(=O)N[C@@H](CCC(N)=O)C(=O)N[C@@H](C)C(=O)N[C@@H](CC(C)C)C(=O)N[C@@H](CCCNC(=N)N)C(=O)N[C@]1(C)CCCCCCC=CCCC[C@@](C)(C(=O)N[C@@H](Cc2ccc(O)cc2)C(=O)N[C@@H](Cc2ccc(O)cc2)C(=O)N[C@@H](C)C(N)=O)NC(=O)[C@H](CC(N)=O)NC(=O)[C@H](Cc2ccccc2)NC(=O)[C@H](C)NC(=O)[C@H](CC(=O)O)NC(=O)CNC(=O)[C@H](CC2CCCCC2)NC1=O)[C@@H](C)CC
Take B3: the values for the Ki with MCL-1, in the experiment with BCL-XL and in the experiment with BCL-2 were 0.0159 µM, 0.0071 µM and 0.109 µM, respectively.

B4: SEQ ID NO: 1710 (peptide)
peptide: Ac-IWIAQALR[R8]IGDAFN[S5]Y[Phe(4-F)]A-NH2
modifications: staple 9-16
SMILES: CC[C@H](C)[C@H](NC(C)=O)C(=O)N[C@@H](Cc1c[nH]c2ccccc12)C(=O)N[C@H](C(=O)N[C@@H](C)C(=O)N[C@@H](CCC(N)=O)C(=O)N[C@@H](C)C(=O)N[C@@H](CC(C)C)C(=O)N[C@@H](CCCNC(=N)N)C(=O)N[C@]1(C)CCCCCCC=CCCC[C@@](C)(C(=O)N[C@@H](Cc2ccc(O)cc2)C(=O)N[C@@H](Cc2ccc(F)cc2)C(=O)N[C@@H](C)C(N)=O)NC(=O)[C@H](CC(N)=O)NC(=O)[C@H](Cc2ccccc2)NC(=O)[C@H](C)NC(=O)[C@H](CC(=O)O)NC(=O)CNC(=O)[C@H]([C@@H](C)CC)NC1=O)[C@@H](C)CC
Consider B4, for which the Ki with MCL-1 stood at 0.0048 µM; in the experiment with BCL-XL, 0.0095 µM; with BCL-2, 0.0918 µM.

B5: SEQ ID NO: 1706 (peptide)
peptide: Ac-IW[αMeL]AQALR[R8]IGDAFN[S5]YYA-NH2
modifications: staple 9-16
SMILES: CC[C@H](C)[C@H](NC(C)=O)C(=O)N[C@@H](Cc1c[nH]c2ccccc12)C(=O)N[C@@](C)(CC(C)C)C(=O)N[C@@H](C)C(=O)N[C@@H](CCC(N)=O)C(=O)N[C@@H](C)C(=O)N[C@@H](CC(C)C)C(=O)N[C@@H](CCCNC(=N)N)C(=O)N[C@]1(C)CCCCCCC=CCCC[C@@](C)(C(=O)N[C@@H](Cc2ccc(O)cc2)C(=O)N[C@@H](Cc2ccc(O)cc2)C(=O)N[C@@H](C)C(N)=O)NC(=O)[C@H](CC(N)=O)NC(=O)[C@H](Cc2ccccc2)NC(=O)[C@H](C)NC(=O)[C@H](CC(=O)O)NC(=O)CNC(=O)[C@H]([C@@H](C)CC)NC1=O
notes: also called Ac-IWAmLAQALR$r8IGDAFN$YYA-NH2
Turning to B5, the Ki is 0.0198 µM in the experiment with MCL-1, 0.0072 µM with BCL-XL and 0.0248 µM in the experiment with BCL-2.

B6: SEQ ID NO: 1711 (peptide)
peptide: Ac-IW[tBuAla]AQALR[R8]IGDAFN[S5]YYA-NH2
modifications: staple 9-16
SMILES: CC[C@H](C)[C@H](NC(C)=O)C(=O)N[C@@H](Cc1c[nH]c2ccccc12)C(=O)N[C@@H](CC(C)(C)C)C(=O)N[C@@H](C)C(=O)N[C@@H](CCC(N)=O)C(=O)N[C@@H](C)C(=O)N[C@@H](CC(C)C)C(=O)N[C@@H](CCCNC(=N)N)C(=O)N[C@]1(C)CCCCCCC=CCCC[C@@](C)(C(=O)N[C@@H](Cc2ccc(O)cc2)C(=O)N[C@@H](Cc2ccc(O)cc2)C(=O)N[C@@H](C)C(N)=O)NC(=O)[C@H](CC(N)=O)NC(=O)[C@H](Cc2ccccc2)NC(=O)[C@H](C)NC(=O)[C@H](CC(=O)O)NC(=O)CNC(=O)[C@H]([C@@H](C)CC)NC1=O
notes: also called Ac-IWTbaAQALR$r8IGDAFN$YYA-NH2
For B6, the Ki in the experiment with MCL-1 amounted to 0.0109 µM; in the experiment with BCL-XL, 0.0172 µM; with BCL-2, 0.0366 µM.

B7: SEQ ID NO: 1716 (peptide)
peptide: Ac-EWIAAALR[R8]IGDAFN[S5]YYA-NH2
modifications: staple 9-16
SMILES: CC[C@H](C)[C@H](NC(=O)[C@H](Cc1c[nH]c2ccccc12)NC(=O)[C@H](CCC(=O)O)NC(C)=O)C(=O)N[C@@H](C)C(=O)N[C@@H](C)C(=O)N[C@@H](C)C(=O)N[C@@H](CC(C)C)C(=O)N[C@@H](CCCNC(=N)N)C(=O)N[C@]1(C)CCCCCCC=CCCC[C@@](C)(C(=O)N[C@@H](Cc2ccc(O)cc2)C(=O)N[C@@H](Cc2ccc(O)cc2)C(=O)N[C@@H](C)C(N)=O)NC(=O)[C@H](CC(N)=O)NC(=O)[C@H](Cc2ccccc2)NC(=O)[C@H](C)NC(=O)[C@H](CC(=O)O)NC(=O)CNC(=O)[C@H]([C@@H](C)CC)NC1=O
As to B7, the values for the Ki in the experiment with MCL-1, in the experiment with BCL-XL and with BCL-2 were 0.0022 µM, 0.072 µM and 0.118 µM, respectively.

B8: SEQ ID NO: 1701 (peptide)
peptide: Ac-IWIAQALR[R8][tBuAla]GDAFN[S5]YYA-NH2
modifications: staple 9-16
SMILES: CC[C@H](C)[C@H](NC(C)=O)C(=O)N[C@@H](Cc1c[nH]c2ccccc12)C(=O)N[C@H](C(=O)N[C@@H](C)C(=O)N[C@@H](CCC(N)=O)C(=O)N[C@@H](C)C(=O)N[C@@H](CC(C)C)C(=O)N[C@@H](CCCNC(=N)N)C(=O)N[C@]1(C)CCCCCCC=CCCC[C@@](C)(C(=O)N[C@@H](Cc2ccc(O)cc2)C(=O)N[C@@H](Cc2ccc(O)cc2)C(=O)N[C@@H](C)C(N)=O)NC(=O)[C@H](CC(N)=O)NC(=O)[C@H](Cc2ccccc2)NC(=O)[C@H](C)NC(=O)[C@H](CC(=O)O)NC(=O)CNC(=O)[C@H](CC(C)(C)C)NC1=O)[C@@H](C)CC
In the case of B8, the Ki stood at 0.0137 µM with MCL-1, 0.0354 µM with BCL-XL and 0.227 µM with BCL-2.

B9: SEQ ID NO: 1713 (peptide)
peptide: Ac-IW[Chg]AQALR[R8]IGDAFN[S5]YYA-NH2
modifications: staple 9-16
SMILES: CC[C@H](C)[C@H](NC(C)=O)C(=O)N[C@@H](Cc1c[nH]c2ccccc12)C(=O)N[C@H](C(=O)N[C@@H](C)C(=O)N[C@@H](CCC(N)=O)C(=O)N[C@@H](C)C(=O)N[C@@H](CC(C)C)C(=O)N[C@@H](CCCNC(=N)N)C(=O)N[C@]1(C)CCCCCCC=CCCC[C@@](C)(C(=O)N[C@@H](Cc2ccc(O)cc2)C(=O)N[C@@H](Cc2ccc(O)cc2)C(=O)N[C@@H](C)C(N)=O)NC(=O)[C@H](CC(N)=O)NC(=O)[C@H](Cc2ccccc2)NC(=O)[C@H](C)NC(=O)[C@H](CC(=O)O)NC(=O)CNC(=O)[C@H]([C@@H](C)CC)NC1=O)C1CCCCC1
notes: also called Ac-IWChgAQALR$r8IGDAFN$YYA-NH2
For the molecule B9, the inhibition constant (Ki) turned out to be 0.0046 µM with MCL-1, 0.0209 µM in the experiment with BCL-XL and 0.0389 µM with BCL-2.

B10: SEQ ID NO: 1705 (peptide)
peptide: Ac-[αMeL]WIAQALR[R8]IGDAFN[S5]YYA-NH2
modifications: staple 9-16
SMILES: CC[C@H](C)[C@H](NC(=O)[C@H](Cc1c[nH]c2ccccc12)NC(=O)[C@](C)(CC(C)C)NC(C)=O)C(=O)N[C@@H](C)C(=O)N[C@@H](CCC(N)=O)C(=O)N[C@@H](C)C(=O)N[C@@H](CC(C)C)C(=O)N[C@@H](CCCNC(=N)N)C(=O)N[C@]1(C)CCCCCCC=CCCC[C@@](C)(C(=O)N[C@@H](Cc2ccc(O)cc2)C(=O)N[C@@H](Cc2ccc(O)cc2)C(=O)N[C@@H](C)C(N)=O)NC(=O)[C@H](CC(N)=O)NC(=O)[C@H](Cc2ccccc2)NC(=O)[C@H](C)NC(=O)[C@H](CC(=O)O)NC(=O)CNC(=O)[C@H]([C@@H](C)CC)NC1=O
As for B10, the Ki with MCL-1 is 0.0052 µM; with BCL-XL, 0.0084 µM; with BCL-2 it was 0.0483 µM.

B11: SEQ ID NO: 1702 (peptide)
peptide: Ac-IWIAQALR[R8][hhL]GDAFN[S5]YYA-NH2
modifications: staple 9-16
SMILES: CC[C@H](C)[C@H](NC(C)=O)C(=O)N[C@@H](Cc1c[nH]c2ccccc12)C(=O)N[C@H](C(=O)N[C@@H](C)C(=O)N[C@@H](CCC(N)=O)C(=O)N[C@@H](C)C(=O)N[C@@H](CC(C)C)C(=O)N[C@@H](CCCNC(=N)N)C(=O)N[C@]1(C)CCCCCCC=CCCC[C@@](C)(C(=O)N[C@@H](Cc2ccc(O)cc2)C(=O)N[C@@H](Cc2ccc(O)cc2)C(=O)N[C@@H](C)C(N)=O)NC(=O)[C@H](CC(N)=O)NC(=O)[C@H](Cc2ccccc2)NC(=O)[C@H](C)NC(=O)[C@H](CC(=O)O)NC(=O)CNC(=O)[C@H](CCCC(C)C)NC1=O)[C@@H](C)CC
For B11, the Ki with MCL-1 stood at 0.0346 µM; with BCL-XL, 0.004 µM; with BCL-2, 0.0231 µM.
